The target in test [1] is T1, recombinant PD-L1 extracellular domain fused to the mouse IgG1 Fc domain (SinoBiologicals) (human; mouse, UniProt Q9NZQ7 19-238).
T1 construct: extracellular domain; also called human PD-L1-mouse Fc; PD-L1-mouse Fc protein; not shown: mouse IgG1 Fc domain
As to the kind of experiment: BLI as in Example 1; reference not named, taken as parental 2LIG189. How it is done:
(§1) Affinities of resulting variants were measured using the bio-layer interferometry technology on an Octet Red 96 instrument (ForteBio). In brief, recombinant PD-L1 extracellular domain fused to the mouse IgG1 Fc domain (SinoBiologicals) was immobilized on anti-murine IgG quantitation (AMQ) biosensors (ForteBio). Loaded sensors were incubated with a serial dilution of PD-L1 VHH variant, association and dissociation monitored and kinetic parameters were calculated using the Octet Data Analysis software v10 (ForteBio).
(§2) The aspartic acid at position 1 was included to avoid the risk of pyroglutamate formation. […] Resulting mutants were purified and affinities measured as described in Example 1.

Test [2] addresses T1, recombinant PD-L1 extracellular domain …. Briefly: BLI (Octet Red 96); ratio of the printed KDs, variant over 2LIG189. As to the method: as §1, §2
(In BLI a coated tip is dipped into the sample, and binding shifts an interference pattern.)

Test [3] shares this target. Briefly: BLI (Octet Red 96), PD-L1-mouse IgG1 Fc on AMQ biosensors, VHH dilution series. As to the method: as §1, §2
For test [4] the target is unchanged. Briefly: BLI as described above; reference not named.
For test [5] the target is unchanged. As to the kind of experiment: BLI (Octet), PD-L1-mouse Fc on the sensor, VHH dilution series, as described above. How it is done:
as §1

Test [6] has the same target. Briefly: BLI (Octet Red 96); ratio of the printed KDs, 2LIG99 over variant. How it is done:
as §1

The target is the same in test [7]. Briefly: BLI (Octet Red 96), PD-L1-mouse IgG1 Fc on AMQ biosensors, VHH dilution series. How it is done: as §1
This is another data set of the same source.

The target is the same in test [8]. Briefly: BLI (Octet Red 96), PD-L1-mouse IgG1 Fc on AMQ biosensors, VHH dilution series; KD and kdis printed ND. As to the method: as §1

T1 sequence (Q9NZQ7 19-238): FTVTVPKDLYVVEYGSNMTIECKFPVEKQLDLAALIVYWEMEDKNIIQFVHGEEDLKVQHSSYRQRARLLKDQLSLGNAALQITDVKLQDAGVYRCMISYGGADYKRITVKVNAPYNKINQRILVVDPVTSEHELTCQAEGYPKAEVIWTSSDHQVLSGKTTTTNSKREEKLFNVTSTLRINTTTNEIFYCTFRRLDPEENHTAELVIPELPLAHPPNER

B1: 2LIG189 variant D33H (VHH, not shown: small tags and cut ends)
VHH: QVQLQESGGGLVQAGGSLRLSCAASGKIFSGNHMGWYRQAPGKQRELVGIITSGGITDYADAVKGRFTISRDNAKNMMYLQMNSLKPEDTAVYYCNMRDRTIWWGQGTQVTVSS
As to B1, the “fold increase in affinity” value in test [1] is no less than 2 fold. The “Ratio KD” value in test [2] came out at 0.47. In addition, in test [3], the Kd was 0.372 nM, the koff turned out to be 0.000157 s⁻¹ and the kon was 421000 M⁻¹ s⁻¹.

B2: SEQ ID NO: 72 (2LIG189 humanization variant with deamidation and oxidation risk sites removed) (VHH)
VHH: DVQLVESGGGLVQPGGSLRLSCAASGKIFSGNHMGWYRQAPGKQRELVGIITSGGITDYADAVKGRFTISRDNSKNTVYLQMNSLRPEDTAVYYCNVRDRTIWWGQGTLVTVSS
notes: also called 2LIG189 second wave variant
With B2, the “fold increase in affinity” value in test [4] was 40 fold. Moreover, in test [5], the Kd is 0.144 nM, the koff came to 7.71e-05 s⁻¹ and the kon was 536000 M⁻¹ s⁻¹.

B3: 2LIG189 variant M97L (VHH, not shown: small tags and cut ends)
VHH: QVQLQESGGGLVQAGGSLRLSCAASGKIFSGNDMGWYRQAPGKQRELVGIITSGGITDYADAVKGRFTISRDNAKNMMYLQMNSLKPEDTAVYYCNLRDRTIWWGQGTQVTVSS
Consider B3, for which the “fold increase in affinity” value in test [1] is no less than 2 fold. Moreover, the “Ratio KD” value in test [2] was 0.01. Further, in test [3], the Kd is 0.0115 nM, the koff amounted to 4.88e-07 s⁻¹ and the kon amounted to 42500 M⁻¹ s⁻¹.

B4: 2LIG189 variant M97V (VHH, not shown: small tags and cut ends)
VHH: QVQLQESGGGLVQAGGSLRLSCAASGKIFSGNDMGWYRQAPGKQRELVGIITSGGITDYADAVKGRFTISRDNAKNMMYLQMNSLKPEDTAVYYCNVRDRTIWWGQGTQVTVSS
Regarding B4, the “fold increase in affinity” value in test [1] was no less than 2 fold. For the same molecule, the “Ratio KD” value in test [2] is 0.01. Further, in test [3], the Kd is 0.00599 nM, the koff worked out at 3.81e-07 s⁻¹ and the kon is 63700 M⁻¹ s⁻¹.

B5: 2LIG189 variant N32R (VHH, not shown: small tags and cut ends)
VHH: QVQLQESGGGLVQAGGSLRLSCAASGKIFSGRDMGWYRQAPGKQRELVGIITSGGITDYADAVKGRFTISRDNAKNMMYLQMNSLKPEDTAVYYCNMRDRTIWWGQGTQVTVSS
With B5, in test [1], the “fold increase in affinity” value is no less than 2 fold. Further, in test [3], the Kd was less than 0.001 nM, the koff is less than 1e-07 s⁻¹ and the kon is 351000 M⁻¹ s⁻¹.

B6: 2LIG189 variant N32Q (VHH, not shown: small tags and cut ends)
VHH: QVQLQESGGGLVQAGGSLRLSCAASGKIFSGQDMGWYRQAPGKQRELVGIITSGGITDYADAVKGRFTISRDNAKNMMYLQMNSLKPEDTAVYYCNMRDRTIWWGQGTQVTVSS
On to B6, for which, in test [1], the “fold increase in affinity” value is no less than 2 fold. Further, the “Ratio KD” value in test [2] came out at 0.16. Moreover, in test [3], the Kd is 0.125 nM, the koff was 8.84e-06 s⁻¹ and the kon came out at 70500 M⁻¹ s⁻¹.

B7: 2LIG189 variant M97I (VHH, not shown: small tags and cut ends)
VHH: QVQLQESGGGLVQAGGSLRLSCAASGKIFSGNDMGWYRQAPGKQRELVGIITSGGITDYADAVKGRFTISRDNAKNMMYLQMNSLKPEDTAVYYCNIRDRTIWWGQGTQVTVSS
notes: also called M971 (so in the source)
In the case of B7, the “fold increase in affinity” value in test [1] was no less than 2 fold. Also, in test [2], the “Ratio KD” value was 0.01. Besides, in test [3], the Kd was determined as 0.00741 nM, the koff was determined as 3.45e-07 s⁻¹ and the kon turned out to be 46500 M⁻¹ s⁻¹.

B8: 2LIG99_D55T (VHH)
VHH: QVQLQESGGGLVQAGGSLRLSCTASGTIFSINRMDWFRQAPGKQRELVALITSTGTPAYADSAKGRFTISRDNTKKTVSLQMNSLKPEDTAVYYCHVSSGVYNYWGQGTQVTVSS
For B8, the “Ratio KD” value in test [6] stood at 0.19. In test [7], the Kd came out at 1.48 nM, the off-rate constant (koff) stood at 0.000436 s⁻¹ and the kon turned out to be 295000 M⁻¹ s⁻¹.

B9: 2LIG99_OPT5 (VHH)
VHH: DVQLVESGGGLVQPGGSLRLSCTASGTIFSINRMDWFRQAPGKQRELVALITSDGTPAYADSAKGRFTISRDNSKKTVYLQMNSLRPEDTAVYYCHVSSGVYNYWGQGTLVTVSS
As for B9, in test [6], the “Ratio KD” value is 2.27. In test [7], the dissociation constant (Kd) stood at 0.124 nM, the koff came to 7.55e-05 s⁻¹ and the kon amounted to 607000 M⁻¹ s⁻¹.

B10: 2LIG99_OPT1 (VHH)
VHH: DVQLVESGGGLVQPGGSLRLSCTASGTIFSINRMDWFRQAPGKQRELVALITSDGTPAYADSAKGRFTISRDNSKKTVSLQMNSLRPEDTAVYYCHVSSGVYNYWGQGTLVTVSS
B10: the “Ratio KD” value in test [6] was 0.35. Besides, in test [7], the Kd turned out to be 0.794 nM, the koff worked out at 0.000704 s⁻¹ and the kon is 886000 M⁻¹ s⁻¹.

B11: P-1665: 2LIG99_D54G (VHH)
VHH: QVQLQESGGGLVQAGGSLRLSCTASGTIFSINRMDWFRQAPGKQRELVALITSGGTPAYADSAKGRFTISRDNTKKTVSLQMNSLKPEDTAVYYCHVSSGVYNYWGQGTQVTVSS
notes: not shown: C-terminal His-tag
With B11, the kon in test [8] is 1.28e+06 M⁻¹ s⁻¹.

B12: P-1660: 2LIG99_OPT2 (Q1D_Q5V_A14P_T23A_T74S_K86R_Q110L) (VHH)
VHH: DVQLVESGGGLVQPGGSLRLSCAASGTIFSINRMDWFRQAPGKQRELVALITSDGTPAYADSAKGRFTISRDNSKKTVSLQMNSLRPEDTAVYYCHVSSGVYNYWGQGTLVTVSS
notes: not shown: C-terminal His-tag
As to B12, in test [6], the “Ratio KD” value stood at 0.19. In test [7], the Kd came out at 1.48 nM, the koff worked out at 0.000658 s⁻¹ and the kon stood at 445000 M⁻¹ s⁻¹.

B13: 2LIG99_OPT4 (VHH)
VHH: DVQLVESGGGLVQPGGSLRLSCTASGTIFSINRMDWFRQAPGKQRELVALITSDGTPAYADSAKGRFTISRDNSKNTVSLQMNSLRPEDTAVYYCHVSSGVYNYWGQGTLVTVSS
B13: the “Ratio KD” value in test [6] worked out at 0.62. Further, in test [7], the Kd amounted to 0.452 nM, the koff is 0.000304 s⁻¹ and the kon was found to be 671000 M⁻¹ s⁻¹.

B14: P-1664: 2LIG99_OPT6 (Q1D_Q5V_A14P_T23A_A63V_T74S_K76N_S79Y_K86R_Q110L) (VHH)
VHH: DVQLVESGGGLVQPGGSLRLSCAASGTIFSINRMDWFRQAPGKQRELVALITSDGTPAYADSVKGRFTISRDNSKNTVYLQMNSLRPEDTAVYYCHVSSGVYNYWGQGTLVTVSS
notes: not shown: C-terminal His-tag
Turning to B14, the “Ratio KD” value in test [6] worked out at 0.03. In addition, in test [7], the Kd is 10.3 nM, the off-rate (koff) stood at 0.00124 s⁻¹ and the kon came to 121000 M⁻¹ s⁻¹.

B15: 2LIG99_G56R (VHH)
VHH: QVQLQESGGGLVQAGGSLRLSCTASGTIFSINRMDWFRQAPGKQRELVALITSDRTPAYADSAKGRFTISRDNTKKTVSLQMNSLKPEDTAVYYCHVSSGVYNYWGQGTQVTVSS
B15: the “Ratio KD” value in test [6] amounted to 0.28. For the same molecule, in test [7], the Kd came out at 1.01 nM, the koff was 0.000761 s⁻¹ and the kon stood at 753000 M⁻¹ s⁻¹.

As usually defined, the Kd is a measure of binding affinity in units of concentration. As a reminder, the koff is a measure of how fast the partners let go of each other. For orientation: kon means a measure of how fast the partners come together.

(Values after US20230002493A1 (ORIONIS BIOSCIENCES, published 2023).)
